Results: patent US20130236458A1 (AbbVie / Abbott, published 2013)

T1: Recombinant Human IL-17 (human, UniProt Q16552 20-155, limits assumed)
T1 construct: bought reagent; also called IL-17A
T1 sequence (looked up): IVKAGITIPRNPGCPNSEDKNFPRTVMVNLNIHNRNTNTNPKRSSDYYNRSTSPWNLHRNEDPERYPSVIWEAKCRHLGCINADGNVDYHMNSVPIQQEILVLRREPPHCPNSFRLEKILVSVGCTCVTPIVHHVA


What was measured:
Recombinant Human IL-17 [1] = molecular target: T1, Recombinant Human IL-17; experiment: SPR (Biacore)
Outline: (§1)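 Antibodies or DVD-Ig captured on anti-mouse IgG (Fcγ) CM5 surface; antigen injected at 10–200 nM in HBS-EP, pH 7.4, 25 °C, 25 µL/min. kon and koff from global 1:1 Langmuir fit; KD = koff/kon.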

Recombinant Human IL-13 [2] = molecular target: T2, Recombinant Human IL-13 (human, UniProt P35225 35-146, limits assumed); experiment: SPR (Biacore)
T2 construct: bought reagent
Outline: as §1

Recombinant Human IL-17 [3] = molecular target: T1, Recombinant Human IL-17; experiment: cell-based or functional assay
Recombinant Human IL-13 [4] = molecular target: T2, Recombinant Human IL-13; experiment: cell-based or functional assay

T2 sequence (P35225 35-146 limits assumed): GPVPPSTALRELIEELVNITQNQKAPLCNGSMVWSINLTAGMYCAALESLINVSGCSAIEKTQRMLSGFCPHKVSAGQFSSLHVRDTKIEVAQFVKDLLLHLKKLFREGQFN

Row | Binder | Kd (Recombinant Human IL-17 [1]) | koff (Recombinant Human IL-17 [1]) | kon (Recombinant Human IL-17 [1]) | Kd (Recombinant Human IL-13 [2]) | koff (Recombinant Human IL-13 [2]) | kon (Recombinant Human IL-13 [2]) | N-Terminal VD IL17 Neutralization Assay IC50 (Recombinant Human IL-17 [3]) | C-Terminal VD IL13 Neutralization Assay IC50 (Recombinant Human IL-13 [4]) | C-Terminal VD IL17 Neutralization Assay IC50 (Recombinant Human IL-17 [3]) | N-Terminal VD IL13 Neutralization Assay IC50 (Recombinant Human IL-13 [4])
1 | DVD2173 (bispecific antibody, DVD-Ig; also called DVD2173H; DVD2173L) VH: EVQLVQSGAEVKKPGSSVKVSCKASGGSFGGYGIGWVRQAPGQGLEWMGGITPFFGFADYAQKFQGRVTITADESTTTAYMELSGLTSDDTAVYYCARDPNEFWNGYYSTHDFDSWGQGTTVTVSSASTKGPEVQLVQSGAEVKKPGASVKVSCKASGYTFTTYGVSWVRQAPGQGLEWMGEIYPGNYNTYYNEKFRGRVTMTTDTSTSTAYMELRSLRSDDTAVYYCARWRTSYFSDYGYFDYWGQGTTVTVSS VL: EIVLTQSPDFQSVTPKEKVTITCRASQDIGSELHWYQQKPDQPPKLLIKYASHSTSGVPSRFSGSGSGTDFTLTINGLEAEDAGTYYCHQTDSLPYTFGPGTKVDIKRTVAAPDVVMTQSPLSLPVTLGQPASISCRSSQSLVHSHGNTYLHWYQQRPGQSPRLLIYTVSNRFSGVPDRFSGSGSGTDFTLKISRVEAEDVGVYYCSQSTHVPYTFGGGTKVEIKR | 0.0036 nM | 9e-06 s⁻¹ | 2.5e+06 M⁻¹ s⁻¹ | 0.12 nM | 3.7e-05 s⁻¹ | 310000 M⁻¹ s⁻¹ | 8 pM | 2.14 nM |  | 
2 | DVD2175 (bispecific antibody, DVD-Ig; also called DVD2175H; DVD2175L) VH: EVQLVQSGAEVKKPGSSVKVSCKASGGSFGGYGIGWVRQAPGQGLEWMGGITPFFGFADYAQKFQGRVTITADESTTTAYMELSGLTSDDTAVYYCARDPNEFWNGYYSTHDFDSWGQGTTVTVSSASTKGPEVQLVQSGAEVKKPGASVKVSCKASGYTFTTYGVSWVRQAPGQGLEWMGEIYPGNYNTYYNEKFRGRVTMTTDTSTSTAYMELRSLRSDDTAVYYCARWRTSYFSDYGYFDYWGQGTTVTVSS VL: EIVLTQSPDFQSVTPKEKVTITCRASQDIGSELHWYQQKPDQPPKLLIKYASHSTSGVPSRFSGSGSGTDFTLTINGLEAEDAGTYYCHQTDSLPYTFGPGTKVDIKRTVAAPSVFIFPPDVVMTQSPLSLPVTLGQPASISCRSSQSLVHSHGNTYLHWYQQRPGQSPRLLIYTVSNRFSGVPDRFSGSGSGTDFTLKISRVEAEDVGVYYCSQSTHVPYTFGGGTKVEIKR | 0.0021 nM | 5.4e-06 s⁻¹ | 2.7e+06 M⁻¹ s⁻¹ | < 0.019 nM | < 1e-06 s⁻¹ | 52000 M⁻¹ s⁻¹ | 8.9 pM | 0.115 nM |  | 
3 | DVD2177 (bispecific antibody, DVD-Ig; also called DVD2177H; DVD2177L) VH: EVQLVQSGAEVKKPGSSVKVSCKASGGSFGGYGIGWVRQAPGQGLEWMGGITPFFGFADYAQKFQGRVTITADESTTTAYMELSGLTSDDTAVYYCARDPNEFWNGYYSTHDFDSWGQGTTVTVSSASTKGPSVFPLAPEVQLVQSGAEVKKPGASVKVSCKASGYTFTTYGVSWVRQAPGQGLEWMGEIYPGNYNTYYNEKFRGRVTMTTDTSTSTAYMELRSLRSDDTAVYYCARWRTSYFSDYGYFDYWGQGTTVTVSS VL: EIVLTQSPDFQSVTPKEKVTITCRASQDIGSELHWYQQKPDQPPKLLIKYASHSTSGVPSRFSGSGSGTDFTLTINGLEAEDAGTYYCHQTDSLPYTFGPGTKVDIKRTVAAPDVVMTQSPLSLPVTLGQPASISCRSSQSLVHSHGNTYLHWYQQRPGQSPRLLIYTVSNRFSGVPDRFSGSGSGTDFTLKISRVEAEDVGVYYCSQSTHVPYTFGGGTKVEIKR | ≤ 0.0043 nM | ≤ 1e-05 s⁻¹ | 2.5e+06 M⁻¹ s⁻¹ | < 0.0091 nM | < 1e-06 s⁻¹ | 110000 M⁻¹ s⁻¹ | 10.1 pM | 0.155 nM |  | 
4 | DVD2183 (bispecific antibody, DVD-Ig; also called DVD2183H; DVD2183L) VH: EVQLVQSGAEVKKPGESVKISCKASGGSFRSYGISWVRQAPGQGLEWMGGITHFFGITDYAQKFQGRVTITADESTTTAYMELSGLTSDDTAVYYCAREPNDFWNGYYDTHDFDSWGQGTTVTVSSASTKGPSVFPLAPEVQLVQSGAEVKKPGASVKVSCKASGYTFTTYGVSWVRQAPGQGLEWMGEIYPGNYNTYYNEKFRGRVTMTTDTSTSTAYMELRSLRSDDTAVYYCARWRTSYFSDYGYFDYWGQGTTVTVSS VL: EIVLTQSPDFQSVTPKEKVTITCRASQNIGSELHWYQQKPDQSPKLLIKYASHSISGVPSRFSGSGSGTDFTLTINGLEAEDAATYYCHQSDTLPHTFGQGTKVDIKRTVAAPDVVMTQSPLSLPVTLGQPASISCRSSQSLVHSHGNTYLHWYQQRPGQSPRLLIYTVSNRFSGVPDRFSGSGSGTDFTLKISRVEAEDVGVYYCSQSTHVPYTFGGGTKVEIKR | 0.015 nM | 3.6e-05 s⁻¹ | 2.3e+06 M⁻¹ s⁻¹ | < 0.0042 nM | < 1e-06 s⁻¹ | 240000 M⁻¹ s⁻¹ | 12.5 pM | 0.086 nM |  | 
5 | DVD2179 (bispecific antibody, DVD-Ig; also called DVD2179H; DVD2179L) VH: EVQLVQSGAEVKKPGESVKISCKASGGSFRSYGISWVRQAPGQGLEWMGGITHFFGITDYAQKFQGRVTITADESTTTAYMELSGLTSDDTAVYYCAREPNDFWNGYYDTHDFDSWGQGTTVTVSSASTKGPEVQLVQSGAEVKKPGASVKVSCKASGYTFTTYGVSWVRQAPGQGLEWMGEIYPGNYNTYYNEKFRGRVTMTTDTSTSTAYMELRSLRSDDTAVYYCARWRTSYFSDYGYFDYWGQGTTVTVSS VL: EIVLTQSPDFQSVTPKEKVTITCRASQNIGSELHWYQQKPDQSPKLLIKYASHSISGVPSRFSGSGSGTDFTLTINGLEAEDAATYYCHQSDTLPHTFGQGTKVDIKRTVAAPDVVMTQSPLSLPVTLGQPASISCRSSQSLVHSHGNTYLHWYQQRPGQSPRLLIYTVSNRFSGVPDRFSGSGSGTDFTLKISRVEAEDVGVYYCSQSTHVPYTFGGGTKVEIKR | 0.039 nM | 6.4e-05 s⁻¹ | 1.7e+06 M⁻¹ s⁻¹ | ≤ 0.0036 nM | ≤ 1e-06 s⁻¹ | 280000 M⁻¹ s⁻¹ | 9.7 pM | 0.916 nM |  | 
6 | DVD2172 (bispecific antibody, DVD-Ig; also called DVD2172H; DVD2172L) VH: EVQLVQSGAEVKKPGASVKVSCKASGYTFTTYGVSWVRQAPGQGLEWMGEIYPGNYNTYYNEKFRGRVTMTTDTSTSTAYMELRSLRSDDTAVYYCARWRTSYFSDYGYFDYWGQGTTVTVSSASTKGPEVQLVQSGAEVKKPGSSVKVSCKASGGSFGGYGIGWVRQAPGQGLEWMGGITPFFGFADYAQKFQGRVTITADESTTTAYMELSGLTSDDTAVYYCARDPNEFWNGYYSTHDFDSWGQGTTVTVSS VL: DVVMTQSPLSLPVTLGQPASISCRSSQSLVHSHGNTYLHWYQQRPGQSPRLLIYTVSNRFSGVPDRFSGSGSGTDFTLKISRVEAEDVGVYYCSQSTHVPYTFGGGTKVEIKRTVAAPEIVLTQSPDFQSVTPKEKVTITCRASQDIGSELHWYQQKPDQPPKLLIKYASHSTSGVPSRFSGSGSGTDFTLTINGLEAEDAGTYYCHQTDSLPYTFGPGTKVDIKR | 26 nM | 0.00017 s⁻¹ | 6800 M⁻¹ s⁻¹ | 0.033 nM | 2.9e-05 s⁻¹ | 890000 M⁻¹ s⁻¹ |  |  | 0.678 nM | 0.111 nM
7 | DVD2174 (bispecific antibody, DVD-Ig; also called DVD2174H; DVD2174L) VH: EVQLVQSGAEVKKPGASVKVSCKASGYTFTTYGVSWVRQAPGQGLEWMGEIYPGNYNTYYNEKFRGRVTMTTDTSTSTAYMELRSLRSDDTAVYYCARWRTSYFSDYGYFDYWGQGTTVTVSSASTKGPEVQLVQSGAEVKKPGSSVKVSCKASGGSFGGYGIGWVRQAPGQGLEWMGGITPFFGFADYAQKFQGRVTITADESTTTAYMELSGLTSDDTAVYYCARDPNEFWNGYYSTHDFDSWGQGTTVTVSS VL: DVVMTQSPLSLPVTLGQPASISCRSSQSLVHSHGNTYLHWYQQRPGQSPRLLIYTVSNRFSGVPDRFSGSGSGTDFTLKISRVEAEDVGVYYCSQSTHVPYTFGGGTKVEIKRTVAAPSVFIFPPEIVLTQSPDFQSVTPKEKVTITCRASQDIGSELHWYQQKPDQPPKLLIKYASHSTSGVPSRFSGSGSGTDFTLTINGLEAEDAGTYYCHQTDSLPYTFGPGTKVDIKR | 0.098 nM | 1.8e-05 s⁻¹ | 180000 M⁻¹ s⁻¹ | 0.036 nM | 2.8e-05 s⁻¹ | 790000 M⁻¹ s⁻¹ |  |  | 0.0126 nM | 0.085 nM
8 | DVD2185 (bispecific antibody, DVD-Ig; also called DVD2185H; DVD2185L) VH: EVQLVQSGAEVKKPGSSVKVSCKASGYTFTDYEIHWVRQAPGQGLEWMGVNDPESGGTFYNQKFDGRVTLTADESTSTAYMELSSLRSEDTAVYYCTRYSKWDSFDGMDYWGQGTTVTVSSASTKGPEVQLVQSGAEVKKPGASVKVSCKASGYTFTSYWMHWVRQAPGQGLEWIGNINPKGGSNIYNEKFQGRVTMTRDTSISTAYMELSRLRSDDTAVYYCARLDYFGDSFDLWGQGTTVTVSS VL: DIQMTQSPSSLSASVGDRVTITCRASSGIISYIDWFQQKPGKAPKRLIYATFDLASGVPSRFSGSGSGTDYTLTISSLQPEDFATYYCRQVGSYPETFGQGTKLEIKRTVAAPDIQMTQSPSSLSASVGDRVTITCRASQGIRNYLNWYQQKPGKAPKLLIYYASNLEVGVPSRFSGSGSGTDYTLTISSLQPEDFATYYCQQDNRFPYTFGGGTKVEIKR | 0.0089 nM | 1.5e-05 s⁻¹ | 1.7e+06 M⁻¹ s⁻¹ | < 0.0091 nM | < 1e-06 s⁻¹ | 110000 M⁻¹ s⁻¹ | 1.3 pM | 1.25 nM |  | 
9 | DVD2181 (bispecific antibody, DVD-Ig; also called DVD2181H; DVD2181L) VH: EVQLVQSGAEVKKPGESVKISCKASGGSFRSYGISWVRQAPGQGLEWMGGITHFFGITDYAQKFQGRVTITADESTTTAYMELSGLTSDDTAVYYCAREPNDFWNGYYDTHDFDSWGQGTTVTVSSASTKGPEVQLVQSGAEVKKPGASVKVSCKASGYTFTTYGVSWVRQAPGQGLEWMGEIYPGNYNTYYNEKFRGRVTMTTDTSTSTAYMELRSLRSDDTAVYYCARWRTSYFSDYGYFDYWGQGTTVTVSS VL: EIVLTQSPDFQSVTPKEKVTITCRASQNIGSELHWYQQKPDQSPKLLIKYASHSISGVPSRFSGSGSGTDFTLTINGLEAEDAATYYCHQSDTLPHTFGQGTKVDIKRTVAAPSVFIFPPDVVMTQSPLSLPVTLGQPASISCRSSQSLVHSHGNTYLHWYQQRPGQSPRLLIYTVSNRFSGVPDRFSGSGSGTDFTLKISRVEAEDVGVYYCSQSTHVPYTFGGGTKVEIKR | 0.016 nM | 4.2e-05 s⁻¹ | 2.6e+06 M⁻¹ s⁻¹ | < 0.012 nM | < 1e-06 s⁻¹ | 82000 M⁻¹ s⁻¹ | 9.7 pM | 0.04 nM |  | 
